# Laboratory results from article PMC6956818, “Activation of JNK and p38 MAPK Mediated by ZDHHC17 Drives Glioblastoma Multiforme Development and Malignant Progression” (Theranostics, 2020).
# B1: Myc-tagged ZDHHC17 ANK (1-7) [human] / Flag-MAP2K4 [human] (parent complex)
# chain 1: THIDDYSTWDIVKATQYGIYERCRELVEAGYDVRQPDKENVTLLHWAAINNRIDLVKYYISKGAIVDQLGGDLNSTPLHWATRQGHLSMVVQLMKYGADPSLIDGEGCSCIHLAAQFGHTSIVAYLIAKGQDVDMMDQNGMTPLMWAAYRTHSVDPTRLLLTFNVSVNLGDKYHKNTALHWAVLAGNTTVISLLLEAGANVDAQNIKGESALDLAKQRKNVWMINHLQEARQAKGYDN
# chain 2: MAAPSPSGGGGSGGGSGSGTPGPVGSPAPGHPAVSSMQGKRKALKLNFANPPFKSTARFTLNPNPTGVQNPHIERLRTHSIESSGKLKISPEQHWDFTAEDLKDLGEIGRGAYGSVNKMVHKPSGQIMAVKRIRSTVDEKEQKQLLMDLDVVMRSSDCPYIVQFYGALFREGDCWICMELMSTSFDKFYKYVYSVLDDVIPEEILGKITLATVKALNHLKENLKIIHRDIKPSNILLDRSGNIKLCDFGISGQLVDSIAKTRDAGCRPYMAPERIDPSASRQGYDVRSDVWSLGITLYELATGRFPYPKWNSVFDQLTQVVKGDPPQLSNSEEREFSPSFINFVNLCLTKDESKRPKYKELLKHPFILMYEERAVEVACYVCKILDQMPATPSSPMYVD
# Variants of: B1
# Test: co-immunoprecipitation, quantified immunoblot; HEK293 cell lysates; parent: 1; read off a plot
row,Variant,ratio to parent
1,chain 1 THIDGYSTWDIVKATQYGIYERCRELVEAGYDVRQPDKENVTLLHWAAINNRIDLVKYYISKGAIVDQLGGDLNSTPLHWATRQGHLSMVVQLMKYGADPSLIDGEGCSCIHLAAQFGHTSIVAYLIAKGQDVDMMDQNGMTPLMWAAYRTHSVDPTRLLLTFNVSVNLGDKYHKNTALHWAVLAGNTTVISLLLEAGANVDAQNIKGESALDLAKQRKNVWMINHLQEARQAKGYDN [chain 1 D5G],~0.75
2,chain 1 THIDDYSTWDIVKATQYGIYERCRELVEAGYDVRQPDKENVTLLHWAAINNGIDLVKYYISKGAIVDQLGGDLNSTPLHWATRQGHLSMVVQLMKYGADPSLIDGEGCSCIHLAAQFGHTSIVAYLIAKGQDVDMMDQNGMTPLMWAAYRTHSVDPTRLLLTFNVSVNLGDKYHKNTALHWAVLAGNTTVISLLLEAGANVDAQNIKGESALDLAKQRKNVWMINHLQEARQAKGYDN [chain 1 R52G],~0.35
3,chain 1 THIGDYSTWDIVKATQYGIYERCRELVEAGYDVRQPDKENVTLLHWAAINNRIDLVKYYISKGAIVDQLGGDLNSTPLHWATRQGHLSMVVQLMKYGADPSLIDGEGCSCIHLAAQFGHTSIVAYLIAKGQDVDMMDQNGMTPLMWAAYRTHSVDPTRLLLTFNVSVNLGDKYHKNTALHWAVLAGNTTVISLLLEAGANVDAQNIKGESALDLAKQRKNVWMINHLQEARQAKGYDN [chain 1 D4G],~0.43
4,"chain 1 THIDDYSTWDIVKATQYGIYERCRELVEAGYDVRQPDKENVTLLHWAAINNRIDLVKYYISKGAIVDQLGGDLNSTPLHGATRQGHLSMVVQLMKYGADPSLIDGEGCSCIHLAAQGGHTSIVAYLIAKGQDVDMMDQNGMTPLMWAAYRTHSVDPTRLLLTFNVSVNLGDKYHKNTALHWAVLAGNTTVISLLLEAGANVDAQNIKGESALDLAKQRKNVWMINHLQEARQAKGYDN [chain 1 W80G, chain 1 F117G]",~0.42
5,chain 1 THIDDYSTWDIVKATQYGIYERCRELVEAGYDVRQPDKENVTLLHWAAINNRIDLVKYYISKGAIVDQLGGDLNSTPLHWATRGGHLSMVVQLMKYGADPSLIDGEGCSCIHLAAQFGHTSIVAYLIAKGQDVDMMDQNGMTPLMWAAYRTHSVDPTRLLLTFNVSVNLGDKYHKNTALHWAVLAGNTTVISLLLEAGANVDAQNIKGESALDLAKQRKNVWMINHLQEARQAKGYDN [chain 1 Q84G],~0.85
6,chain 1 THIDDYSTWDIVKATQGGIYERCRELVEAGYDVRQPDKENVTLLHWAAINNRIDLVKYYISKGAIVDQLGGDLNSTPLHWATRQGHLSMVVQLMKYGADPSLIDGEGCSCIHLAAQFGHTSIVAYLIAKGQDVDMMDQNGMTPLMWAAYRTHSVDPTRLLLTFNVSVNLGDKYHKNTALHWAVLAGNTTVISLLLEAGANVDAQNIKGESALDLAKQRKNVWMINHLQEARQAKGYDN [chain 1 Y17G],~0.33
7,chain 1 THIDDGSTWDIVKATQYGIYERCRELVEAGYDVRQPDKENVTLLHWAAINNRIDLVKYYISKGAIVDQLGGDLNSTPLHWATRQGHLSMVVQLMKYGADPSLIDGEGCSCIHLAAQFGHTSIVAYLIAKGQDVDMMDQNGMTPLMWAAYRTHSVDPTRLLLTFNVSVNLGDKYHKNTALHWAVLAGNTTVISLLLEAGANVDAQNIKGESALDLAKQRKNVWMINHLQEARQAKGYDN [chain 1 Y6G],~0.35
8,"chain 1 THIDDYSTWDIVKATQYGIYERCRELVEAGYDVRQPDKENVTLLHWAAINNRIDLVKYYISKGAIVDQLGGDLNSTPLHWATGQGHLSMVVQLMKYGADPSLIDGEGCSCIHLAAQFGHTSIVAYLIAKGQDVDMMDQNGMTPLMWAAYGTHSVDPTRLLLTFNVSVNLGDKYHKNTALHWAVLAGNTTVISLLLEAGANVDAQNIKGESALDLAKQRKNVWMINHLQEARQAKGYDN [chain 1 R83G, chain 1 R150G]",~0.75
